Data published in IntAct's records for PubMed 16951355.

B1: ICOS ligand (Homo sapiens), O75144 (parent)
chain: MRLGSPGLLFLLFSSLRADTQEKEVRAMVGSDVELSCACPEGSRFDLNDVYVYWQTSESKTVVTYHIPQNSSLENVDSRYRNRALMSPAGMLRGDFSLRLFNVTPQDEQKFHCLVLSQSLGFQEVLSVEVTLHVAANFSVPVVSAPHSPSQDELTFTCTSINGYPRPNVYWINKTDNSLLDQALQNDTVFLNMRGLYDVVSVLRIARTPSVNIGCCIENVLLQQNLTVGSQTGNDIGERDKITENPVSTGEKNAATWSILAVLCLLVVVAVAIGWVCRDRCLQHSYAGAWAVSPETELTGHV

Variants of: B1
Conditions: with icos_human ICOS

Variant	effect of a mutation on the interaction
L47A	with no effect
Y51A	disrupting interaction strength
Y51F	decreasing interaction strength
Y53A	disrupting interaction strength
Y53F	disrupting interaction strength
Q55A	decreasing interaction strength
Q55A;V62A	disrupting interaction strength
S59A	with no effect
T61A	with no effect
V62A	decreasing interaction strength
T64A	with no effect
H66A	decreasing interaction strength
N70Q	with no effect
V76A	decreasing interaction strength
D77A	with no effect
Y80A	disrupting interaction strength
S87A	with no effect

Variant	effect of a mutation on the interaction
L98A	with no effect
N102Q	decreasing interaction strength
L114A	decreasing interaction strength
L120A	decreasing interaction strength
G121A	with no effect
F122A	disrupting interaction strength
Q123A	with no effect
E124A	decreasing interaction strength
N137Q	with no effect
F138A	with no effect
P141A	with no effect
V143A	with no effect
N186Q	with no effect
G195A	with no effect
L196A	with no effect
N225Q	with no effect
